# Measured values: doi:10.64898/2025.12.02.691773
# Biological target: DH-CRBN (human) (UniProt Q96SW2)
# Assay: split reporter
# Parameters: unit not given beside the values
Substance,AUC of the growth curve with pomalidomide,AUC of the growth curve without compound (DMSO)
SPART FD (from UniProt Q8N0X7 1-666) (domain or fragment),2800,1780
CHD8 full domain (FD) (from UniProt Q9HCK8 1-2581) (domain or fragment),5130,3220
